Laboratory results taken from patent publication US11278600B2, “Human alpha-galactosidase variants” (Codexis, Inc., priority 2014, dated 2022).

What was measured:
Type in all cases: biochemical
[1] = HTP-analysis of yeast culture supernatants, no challenge (MUGal hydrolysis); details: activity of the variant/activity of Rd4BB (SEQ ID NO: 15)
Procedure, shortened: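 GLA variants were expressed in INVSc1 yeast grown in SD-Ura broth with glucose at 30° C., and culture supernatants were collected after 66-84 h. Supernatant was mixed with McIlvaine buffer pH 4.8 and MUGal (2 mM stock) in 50 mM citrate, 200 mM KCl, pH 4.6, incubated at 37° C. for 30-180 minutes, then quenched with sodium carbonate.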

[2] = HTP-analysis of supernatants pretreated with base (MUGal hydrolysis); details: activity of the variant/activity of Rd4BB (SEQ ID NO: 15); challenge at pH 9.65
Procedure, shortened: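 GLA variants secreted from yeast INVSc1; culture supernatants pre-incubated with McIlvaine buffer pH 7.0–8.2 or 200 mM bicarbonate pH 9.1–9.7 at 37° C. for 1–18 h. Residual activity: MUGal (4 mM stock) hydrolysis at pH 4.3–4.8, 37° C., 30–180 min, carbonate quench; fluorescence Ex 355/Em 448 nm.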

[3] = HTP-analysis of supernatants pretreated with acid (MUGal hydrolysis); details: activity of the variant/activity of Rd4BB (SEQ ID NO: 15); challenge at pH 3.7
Procedure, shortened: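 Supernatants from INVSc1 yeast secreting GLA variants were challenged at 37° C. for 1-3 h in McIlvaine buffer at pH 3.3-4.3. Residual activity was then measured on 4 mM MUGal substrate stock at pH 4.8 with citrate buffer pH 4.3, over 30-180 min at 37° C. Reactions were quenched with sodium carbonate and read by fluorescence (Ex 355/Em 448 nm).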

Molecule	Relative Activity of GLA Variants After No Challenge (NC) [1]	Relative Activity of GLA Variants After Challenge at pH 9.65 [2]	Relative Activity of GLA Variants After Challenge at pH 3.7 [3]
501 (protein, Synthetic Polypeptide sequence of Variant No. 501 of mature Human GLA) LDNGLARTPTMGWLHWERFMCNLDCQEEPDSCISEKLFMEMAERMVSEGWKDAGYEYLCIDDCWMAPQRDSEGRLQADPQRFPHGIRQLANYVHSKGLKLGIYADVGNKTCAGFPGSFGYYDIDAQTFADWGVDLLKFDGCYCDSLENLADGYKHMSLALNRTGRSIVYSCEWPLYMWPFQKPNYTEIRQYCNHWRNFADIDDSWKSIKSILDWTSFNQERIVDVAGPGGWNDPDMLVIGNFGLSWNQQVTQMALWAIMAAPLFMSNDLRHISPQAKALLQDKDVIAINQDPLGKQGYQLRQGDNFEVWERPLSGLAWAVAMINRQEIGGPRSYTIAVASLGKGVACNPACFITQLLPVKRKLGFYEWTSRLRSHINPTGTVLLQLENTMQGSLKDLL	+ (0.5 to 1.5 relative activity over Rd4BB (SEQ ID NO: 15))	+ (0.5 to 1.5 relative activity over Rd4BB (SEQ ID NO: 15))	++ (>1.5 to 2.5 relative activity over Rd4BB (SEQ ID NO: 15))
503 (protein, Synthetic Polypeptide sequence of Variant No. 503 of mature Human GLA) LDNGLARTPTMGWLHWERFMCNLDCQEEPDSCISEKLFMEMAERMVSEGWKDAGYEYLCIDDCWMAPQRDSEGRLQADPQRFPHGIRQLANYVHSKGLKLGIYADVGNKTCAGFPGSFGYYDIDAQTFADWGVDLLKFDGCYCDSLENLADGYKHMSLALNRTGRSIVYSCEWPLYMWPFQKPNYTEIRQYCNHWRNFADIDDSWKSIKSILDWTSFNQERIVDVAGPGGWNDPDMLVIGNFGLSWNQQVTQMALWAIMAAPLFMSNDLRHISPQAKALLQDKDVIAINQDPLGKQGYQLRQGDNFEVWERPLSGLAWAVAMINRQEIGGPRSYTIAVASLGKGVACNPACFITQLLPVKRKLGFYEWTSRLRSHINPTGTVLLCLENTMQMSLKDLL	+ (0.5 to 1.5 relative activity over Rd4BB (SEQ ID NO: 15))	+ (0.5 to 1.5 relative activity over Rd4BB (SEQ ID NO: 15))	+ (0.5 to 1.5 relative activity over Rd4BB (SEQ ID NO: 15))
505 (protein, Synthetic Polypeptide sequence of Variant No. 505 of mature Human GLA) LDNGLARTPTMGWLHWERFMCNLDCQEEPDSCISEKLFMEMAERMVSEGWKDAGYEYLCIDDCWMAPQRDSEGRLQADPQRFPHGIRQLANYVHSKGLKLGIYADVGNKTCAGFPGSFGYYDIDAQTFADWGVDLLKFDGCYCDSLENLADGYKHMSLALNRTGRSIVYSCEWPLYMWPFQKPNYTEIRQYCNHWRNFADIDDSWKSIKSILDWTSFNQERIVDVAGPGGWNDPDMLVIGNFGLSWNQQVTQMALWAIMAAPLFMSNDLRHISPQAKALLQDKDVIAINQDPLGKQGYQLRQGDNFEVWERPLSGLAWAVAMINRQEIGGPRSYTIAVASLGKGVACNPACFITQLLPVKRKLGFYEWTSRLRSHINPTGTVLLQLENTMQNSLKDLL	+ (0.5 to 1.5 relative activity over Rd4BB (SEQ ID NO: 15))	+ (0.5 to 1.5 relative activity over Rd4BB (SEQ ID NO: 15))	+ (0.5 to 1.5 relative activity over Rd4BB (SEQ ID NO: 15))
507 (protein, Synthetic Polypeptide sequence of Variant No. 507 of mature Human GLA) LDNGLARTPTMGWLHWERFMCNLDCQEEPDSCISEKLFMEMAERMVSEGWKDAGYEYLCIDDCWMAPQRDSEGRLQADPQRFPHGIRQLANYVHSKGLKLGIYADVGNKTCAGFPGSFGYYDIDAQTFADWGVDLLKFDGCYCDSLENLADGYKHMSLALNRTGRSIVYSCEWPLYMWPFQKPNYTEIRQYCNHWRNFADIDDSWKSIKSILDWTSFNQERIVDVAGPGGWNDPDMLVIGNFGLSWNQQVTQMALWAIMAAPLFMSNDLRHISPQAKALLQDKDVIAINQDPLGKQGYQLRQGDNFEVWERPLSGLAWAVAMINRQEIGGPRSYTIAVASLGKGVACNPACFITQLLPVKRKLGFYEWTSRLRSHINPTGTVLLQLENTMQTSLKDLL	+ (0.5 to 1.5 relative activity over Rd4BB (SEQ ID NO: 15))	+ (0.5 to 1.5 relative activity over Rd4BB (SEQ ID NO: 15))	++ (>1.5 to 2.5 relative activity over Rd4BB (SEQ ID NO: 15))
506 (protein, Synthetic Polypeptide sequence of Variant No. 506 of mature Human GLA) LDNGLARTPTMGWLHWERFMCNLDCQEEPDSCISEKLFMEMAERMVSEGWKDAGYEYLCIDDCWMAPQRDSEGRLQADPQRFPHGIRQLANYVHSKGLKLGIYADVGNKTCAGFPGSFGYYDIDAQTFADWGVDLLKFDGCYCDSLENLADGYKHMSLALNRTGRSIVYSCEWPLYMWPFQKPNYTEIRQYCNHWRNFADIDDSWKSIKSILDWTSFNQERIVDVAGPGGWNDPDMLVIGNFGLSWNQQVTQMALWAIMAAPLFMSNDLRHISPQAKALLQDKDVIAINQDPLGKQGYQLRQGDNFEVWERPLSGLAWAVAMINRQEIGGPRSYTIAVASLGKGVACNPACFITQLLPVKRKLGFYEWTSRLRSHINPTGTVLLWLENTMQMSLKDLL	+ (0.5 to 1.5 relative activity over Rd4BB (SEQ ID NO: 15))	− (<0.5 relative activity over Rd4BB (SEQ ID NO: 15))	+ (0.5 to 1.5 relative activity over Rd4BB (SEQ ID NO: 15))
504 (protein, Synthetic Polypeptide sequence of Variant No. 504 of mature Human GLA) LDNGLARTPTMGWLHWERFMCNLDCQEEPDSCISEKLFMEMAERMVSEGWKDAGYEYLCIDDCWMAPQRDSEGRLQADPQRFPHGIRQLANYVHSKGLKLGIYADVGNKTCAGFPGSFGYYDIDAQTFADWGVDLLKFDGCYCDSLENLADGYKHMSLALNRTGRSIVYSCEWPLYMWPFQKPNYTEIRQYCNHWRNFADIDDSWKSIKSILDWTSFNQERIVDVAGPGGWNDPDMLVIGNFGLSWNQQVTQMALWAIMAAPLFMSNDLRHISPQAKALLQDKDVIAINQDPLGKQGYQLRQGDNFEVWERPLSGLAWAVAMINRQEIGGPRSYTIAVASLGKGVACNPACFITQLLPVKRKLGFYEWTSRLRSHINPTGTVLLQLENTSQMSLKDLL	+ (0.5 to 1.5 relative activity over Rd4BB (SEQ ID NO: 15))	+ (0.5 to 1.5 relative activity over Rd4BB (SEQ ID NO: 15))	+ (0.5 to 1.5 relative activity over Rd4BB (SEQ ID NO: 15))
502 (protein, Synthetic Polypeptide sequence of Variant No. 502 of mature Human GLA) LDNGLARTPTMGWLHWERFMCNLDCQEEPDSCISEKLFMEMAERMVSEGWKDAGYEYLCIDDCWMAPQRDSEGRLQADPQRFPHGIRQLANYVHSKGLKLGIYADVGNKTCAGFPGSFGYYDIDAQTFADWGVDLLKFDGCYCDSLENLADGYKHMSLALNRTGRSIVYSCEWPLYMWPFQKPNYTEIRQYCNHWRNFADIDDSWKSIKSILDWTSFNQERIVDVAGPGGWNDPDMLVIGNFGLSWNQQVTQMALWAIMAAPLFMSNDLRHISPQAKALLQDKDVIAINQDPLGKQGYQLRQGDNFEVWERPLSGLAWAVAMINRQEIGGPRSYTIAVASLGKGVACNPACFITQLLPVKRKLGFYEWTSRLRSHINPTGTVLLQSENTMQMSLKDLL	− (<0.5 relative activity over Rd4BB (SEQ ID NO: 15))	− (<0.5 relative activity over Rd4BB (SEQ ID NO: 15))	+ (0.5 to 1.5 relative activity over Rd4BB (SEQ ID NO: 15))
372 (protein, Synthetic Polypeptide sequence of Variant No. 372 of mature Human GLA) LDNGLARTPTMGWLHWERFMCNLDCQEEPDSCISEKLFMEMAEVMVSEGWKDAGYEYLCIDDCWMAPQRDSEGRLQADPQRFPHGIRQLANYVHSKGLKLGIYADVGNKTCAGFPGSFGYYDIDAQTFADWGVDLLKFDGCYCDSLENLADGYKHMSLALNRTGRSIVYSCEWPLYMWPFQKPNYTEIRQYCNHWRNFADIDDSWKSIKSILDWTSRNQERIVDVAGPGGWNDPDMLVIGNFGLSWDQQVTQMALWAIMAAPLFMSNDLRHISPQAKALLQDKDVIAINQDPLGKQGYQLRKGDNFEVWERPLSGDAWAVAIINRQEIGGPRSYTIPVASLGKGVACNPACFITQLLPVKRQLGFYNWTSRLKSHINPTGTVLLQLENTMQMSLKDLL	+ (0.5 to 1.5 relative activity over Rd4BB (SEQ ID NO: 15))	+ (0.5 to 1.5 relative activity over Rd4BB (SEQ ID NO: 15))	− (<0.5 relative activity over Rd4BB (SEQ ID NO: 15))
